The target of the first assay is HLA-A*02:01. Kind of assay: IEDB peptide-MHC binding, purified MHC/competitive/radioactivity; ≥ and ≤ were set here for values at or beyond the usual limits of such assays. The following applies: source organism: Influenza A virus.
The term IC50 denotes the concentration at which inhibition is half-maximal. Take QIAILVTTV: the IC50 turned out to be 1090 nM.
Regarding QLMWALGENMA, the half-maximal inhibitory concentration (IC50) amounted to 848 nM.
On the same count and under the same terms, the value for RTMAWTVVNSI was 650 nM.

The assay is the same for the next values; noted with them: source organism: Mammarenavirus brazilense.
Take QLFSFFEEV: the half-maximal inhibitory concentration (IC50) was 12 nM.
On the same count and under the same terms, with QLIFFLTLA the figure was 122 nM.

The same assay, now with this note: source organism: Mammarenavirus choriomeningitidis.
SIISHNFCNL: the IC50 amounted to 3680 nM.
SLAADLEKL: the IC50 stood at 45 nM.
Still for that read-out and setting: the value for SLNQTVHSL was 53 nM.

Staying with this assay, now noted: source organism: Mammarenavirus juninense.
With SLFLHLVGI, the IC50 is 1.5 nM.
For SLIAIIKGIV, the 50% inhibitory concentration (IC50) was 763 nM.
Same read-out and setting: the value for SLIAIIKGV was 12 nM; that for SLKAFFSWSL was 1600 nM.

The same assay, now with this note: source organism: Mammarenavirus lassaense.
For RLLGTFTWTL, the IC50 turned out to be 5.1 nM.
With RMAWGGSYIA, the IC50 turned out to be 294 nM.
For the sequence SIISTFHLSI, the IC50 was 714 nM.
As to SLQSAGFTA, the IC50 came to 1250 nM.

The assay is the same for the next values; noted with them: source organism: Mammarenavirus machupoense.
Take SLIKSTLQV: the half-inhibitory concentration (IC50) turned out to be 248 nM.
Take SLLPLSLLFL: the IC50 came to 7.3 nM.

Still in this assay, the particulars now being: source organism: Mammarenavirus whitewaterense.
As to QLDMIITAV, the concentration for half-maximal inhibition (IC50) was determined as 57 nM.

Still in this assay, the particulars now being: source organism: Vaccinia virus WR.
NMQTVKLFV: the IC50 turned out to be 12 nM.
Still for that read-out and setting: the value for NQLYLTVSFI was 520 nM.
Turning to NTFYLFTFT, the half-inhibitory concentration (IC50) came to 492 nM.
For the sequence NTFYLFTFTI, the half-maximal inhibitory concentration (IC50) was found to be 55 nM.
Regarding NTIDQTANV, the 50% inhibitory concentration (IC50) was determined as 162 nM.
In the case of NTSWNDTVT, the IC50 was 146 nM.
Regarding NVDNLIMIV, the IC50 was determined as 170 nM.
NVDSTDELM: the concentration for half-maximal inhibition (IC50) amounted to 1940 nM.
Still for that read-out and setting: with NVFETRIVM the figure was 2640 nM; with NVFKYLTSV, 0.75 nM; with NVVSSSTIA, 588 nM.
Consider NVYPGVWNT, for which the IC50 was determined as 830 nM.
The same measure, in the same setting: with PAVVYSTCTV the figure was 2310 nM; with PIKFIAEFLV, 4460 nM.
Regarding PITDSLSFKL, the IC50 was determined as 2660 nM.
Same read-out and setting: with PLGILSNYV the figure was 2710 nM.
The same measure, in the same setting: the value for PLLFILFYFA was 42 nM; that for PLLNIGIVL was 1420 nM; that for PLYEVNSTM was 4580 nM.
In the case of PLYEVNSTMT, the concentration for half-maximal inhibition (IC50) was 3420 nM.
On to PMLYQLLEA, for which the half-maximal inhibitory concentration (IC50) came out at 1070 nM.
With PMLYQLLEAV, the IC50 was found to be 1090 nM.
PVLMFLLFYV: the IC50 worked out at 69 nM.
The same measure, in the same setting: with PVNAINDRL the figure was 3460 nM; with QAIMESDSFL, 67 nM.
Consider QAKTKNFTI, for which the IC50 is 3800 nM.
As for QIFEVYWYL, the IC50 amounted to 11 nM.
On the same count and under the same terms, the value for QLEHGSCQPV was 16 nM.
Regarding QLLEAVYGNI, the IC50 was determined as 199 nM.
With QLVDAIDNI, the 50% inhibitory concentration (IC50) was determined as 154 nM.
In the case of QLVDAIDNIV, the half-maximal inhibitory concentration (IC50) amounted to 101 nM.
Take QLVWENFLA: the IC50 stood at 22 nM.
As for QLYLTVSFI, the concentration for half-maximal inhibition (IC50) was 3280 nM.
For QMTSTFIML, the IC50 was determined as 420 nM.
For QTANVVFRYM, the IC50 amounted to 729 nM.
Turning to QTCAGVIEYA, the IC50 was found to be 359 nM.
On the same count and under the same terms, the value for QTSVFSATV was 1670 nM.
On to RIDKTMKYI, for which the half-inhibitory concentration (IC50) was determined as 2660 nM.
Same read-out and setting: with RIDMIDNLNI the figure was 2550 nM.
The same measure, in the same setting: with RIIDSEVVV the figure was 94 nM; with RINDDSKSIL, 4360 nM; with RIPNSLHSL, 670 nM.
As to RISGSNIVI, the IC50 was determined as 3670 nM.
For the sequence RISMVISLL, the half-maximal inhibitory concentration (IC50) was 1460 nM.
For the sequence RLESYHRFDM, the IC50 stood at 3330 nM.
As for RLFSYNFTT, the 50% inhibitory concentration (IC50) came to 0.23 nM.
RLHKECLLRL: the half-maximal inhibitory concentration (IC50) amounted to 447 nM.
Consider RLIVLFEVFV, for which the concentration for half-maximal inhibition (IC50) amounted to 103 nM.
Turning to RLKSSQTIEL, the half-maximal inhibitory concentration (IC50) is 338 nM.
On the same count and under the same terms, with RLLDDLVIV the figure was 0.65 nM; with RLLDLFGPEV, 0.98 nM.
Regarding RLNDFLGLL, the half-inhibitory concentration (IC50) came to 11 nM.
The same measure, in the same setting: the value for RLNPEVSYFT was 128 nM; that for RLSLNRTIV was 849 nM.
Same read-out and setting: the value for RLSTEERHI was 708 nM; that for RLVDFFPDI was 0.14 nM.
On to RLYDLTRYA, for which the half-maximal inhibitory concentration (IC50) was determined as 4 nM.
With RLYDYFTRV, the IC50 amounted to 11 nM.
On to RMILYLESV, for which the IC50 was 1.8 nM.
RMQRISGSNI: the IC50 was 4330 nM.
As to RQIFIHYSV, the IC50 amounted to 0.65 nM.
For the sequence RTCSNWVPL, the IC50 was found to be 4.9 nM.
On to RTFLIDLAFL, for which the IC50 turned out to be 6.6 nM.
For the sequence RTLDTAIFT, the IC50 was 3430 nM.
As for RTLLGLILFV, the half-inhibitory concentration (IC50) was found to be 20 nM.
In the case of RTLLPILLL, the IC50 amounted to 307 nM.
Consider RTNEEFDPV, for which the IC50 was 140 nM.
On to RTSQKGTVA, for which the IC50 is 765 nM.
For RTVIHLEWL, the IC50 was 514 nM.
Take RTVIHLEWLL: the IC50 worked out at 134 nM.
As to RVETSPRPT, the IC50 was 1960 nM.
The same measure, in the same setting: the value for RVFNEYGFV was 190 nM; that for RVFNEYGFVL was 535 nM; that for RVIGLCIRI was 17 nM.
For the sequence RVNVFETRI, the IC50 is 1960 nM.
Turning to RVQSFKINI, the IC50 was 769 nM.
For the sequence RVYEALYYV, the half-inhibitory concentration (IC50) was 1.5 nM.
With RVYKTIWEI, the concentration for half-maximal inhibition (IC50) came to 285 nM.
Consider SASVFYRGA, for which the half-inhibitory concentration (IC50) came out at 2050 nM.
As for SIDIETESV, the half-inhibitory concentration (IC50) was found to be 235 nM.
For SIDQKKSYV, the IC50 stood at 188 nM.
In the case of SIEGELESL, the IC50 worked out at 3940 nM.
On to SIFGFQAEV, for which the IC50 was 0.54 nM.
With SIFINKLNGA, the IC50 came to 1820 nM.
SIINRDIIV: the half-inhibitory concentration (IC50) stood at 699 nM.
As for SIINRDIIVI, the half-inhibitory concentration (IC50) came to 826 nM.
Consider SILISLTNEI, for which the IC50 was found to be 283 nM.
On to SIRFHIKEL, for which the 50% inhibitory concentration (IC50) was 1560 nM.
Take SIRLELVNLI: the IC50 turned out to be 2170 nM.
SISVVFSTNL: the 50% inhibitory concentration (IC50) turned out to be 2890 nM.
As for SITKEKIKI, the 50% inhibitory concentration (IC50) was determined as 4810 nM.
Take SIYECITFL: the half-maximal inhibitory concentration (IC50) is 77 nM.
Consider SLDSLVHLL, for which the IC50 is 3.3 nM.
On to SLDVINYLI, for which the half-maximal inhibitory concentration (IC50) amounted to 0.55 nM.
In the case of SLEATYHII, the concentration for half-maximal inhibition (IC50) came out at 762 nM.
Regarding SLEATYHIII, the IC50 came to 4980 nM.
Take SLFSLLLVI: the IC50 came out at 5.8 nM.
For the sequence SLHSLSVET, the IC50 was determined as 266 nM.
Consider SLHSLSVETI, for which the IC50 is 95 nM.
Still for that read-out and setting: the value for SLLDEDSKI was 99 nM; that for SLLRKFLYCI was 338 nM; that for SLLVAPMPT was 935 nM.
Turning to SLLVIWILIV, the IC50 was 1020 nM.
The same measure, in the same setting: with SLMDMITLSL the figure was 0.59 nM; with SLNLTIVSV, 26 nM; with SLNRTIVTKV, 67 nM.
Same read-out and setting: the value for SLQTCAGVI was 2850 nM; that for SLSKQDISL was 67 nM.
SLSLHPLYV: the IC50 amounted to 9.8 nM.
As for SLSSIRFHI, the half-inhibitory concentration (IC50) was 11 nM.
As for SLSSQMTST, the half-maximal inhibitory concentration (IC50) came to 2000 nM.
Take SLTNEIYASI: the IC50 is 161 nM.
With SLVEMMWDL, the IC50 is 11 nM.
For SLYDQKEINA, the IC50 came out at 267 nM.
As to SMDTLLFFL, the IC50 worked out at 1 nM.
Still for that read-out and setting: with SMFLMTATL the figure was 2.3 nM.
For SMICLSLILA, the IC50 worked out at 101 nM.
Take SMIGLCACV: the IC50 is 2 nM.
Same read-out and setting: the value for SMISRHCCI was 986 nM; that for SMITMSAFL was 20 nM.
Turning to SMITMSAFLI, the IC50 amounted to 59 nM.
In the case of SMLGIWFFT, the IC50 is 0.65 nM.
With SMLIEVILTA, the IC50 is 795 nM.

(Values after the Immune Epitope Database (IEDB).)
